Experiment [1] addresses HCMV virus particles, strain TB40/E. Put plainly: immunofluorescence: intensity of anti-human Fc staining per virus particle on HFFs at different PDGFR-alpha-Fc concentrations.
Experiment [2] has the same target. The experiment is described as follows: cell-based or functional assay.

The record followed here is patent US20210380664A1.

As for “soluble PDGFR-alpha-Fc chimera (R&D 6765-PR-050) (Fc fusion)”, the EC50 in experiment [1] was found to be 0.108 µg/mL. In experiment [2], this substance had an EC50 of inhibition of infection of HECs (IE antigen staining) of 0.02 to 0.05 µg/mL; an EC50 of inhibition of infection of HFFs (IE antigen staining) of 0.01 to 0.02 µg/mL; a complete abrogation of infection of HFFs of 200 ng/mL; an infectivity of already adsorbed virus on HFFs (200 ng/ml, post adsorption) of 50%. In experiment [2], the reduction of adsorption of pre-treated virus particles to HECs (100 ng/ml) is 75%, the reduction of adsorption of pre-treated virus particles to HFFs (100 ng/ml) was determined as 50% and the reduction of penetration of pre-treated virus particles into HFFs (100 ng/ml) turned out to be 75%.
